For experiment [1], the target named is monkey LAG-3 on cells (HEK293-cLAG-3 stable cell line) (monkey). The experiment can be described thus: FACS, HEK293-cLAG-3, antibody 0.000 nM. For orientation: Flow cytometry measures light scatter and fluorescence of single cells or particles in a stream.
Experiment [2] shares this target. The experiment can be described thus: FACS, HEK293-cLAG-3, antibody 0.064 nM.
Experiment [3] deals with human LAG-3 on cells (HEK293-hLAG-3 stable cell line) (human) (UniProt P18627). Kind of experiment: FACS, HEK293-hLAG-3, antibody 0.320 nM.
Experiment [4] concerns the target T1, human LAG-3 on cells (HEK293-hLAG-3 stable cell line) (human, UniProt P18627 23-525).
T1 sequence: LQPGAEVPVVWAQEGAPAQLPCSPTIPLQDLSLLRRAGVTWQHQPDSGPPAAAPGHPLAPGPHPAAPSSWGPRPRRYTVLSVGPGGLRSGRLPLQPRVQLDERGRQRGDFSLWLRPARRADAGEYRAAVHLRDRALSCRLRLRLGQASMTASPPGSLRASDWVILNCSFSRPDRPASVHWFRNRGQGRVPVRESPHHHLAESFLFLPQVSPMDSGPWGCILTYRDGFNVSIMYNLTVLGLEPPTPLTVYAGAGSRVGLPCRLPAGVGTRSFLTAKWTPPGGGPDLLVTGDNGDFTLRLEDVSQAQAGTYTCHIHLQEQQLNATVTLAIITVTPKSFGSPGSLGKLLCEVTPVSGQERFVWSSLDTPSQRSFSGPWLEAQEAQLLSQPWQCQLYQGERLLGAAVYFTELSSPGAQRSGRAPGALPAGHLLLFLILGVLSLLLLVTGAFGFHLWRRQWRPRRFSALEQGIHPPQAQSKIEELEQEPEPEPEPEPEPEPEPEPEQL
Kind of experiment: FACS, HEK293-hLAG-3, antibody 0 nM.

The target in experiment [5] is T2, human LAG-3 ECD (antigen protein of the affinity test) (human, UniProt P18627 23-450).
T2 sequence: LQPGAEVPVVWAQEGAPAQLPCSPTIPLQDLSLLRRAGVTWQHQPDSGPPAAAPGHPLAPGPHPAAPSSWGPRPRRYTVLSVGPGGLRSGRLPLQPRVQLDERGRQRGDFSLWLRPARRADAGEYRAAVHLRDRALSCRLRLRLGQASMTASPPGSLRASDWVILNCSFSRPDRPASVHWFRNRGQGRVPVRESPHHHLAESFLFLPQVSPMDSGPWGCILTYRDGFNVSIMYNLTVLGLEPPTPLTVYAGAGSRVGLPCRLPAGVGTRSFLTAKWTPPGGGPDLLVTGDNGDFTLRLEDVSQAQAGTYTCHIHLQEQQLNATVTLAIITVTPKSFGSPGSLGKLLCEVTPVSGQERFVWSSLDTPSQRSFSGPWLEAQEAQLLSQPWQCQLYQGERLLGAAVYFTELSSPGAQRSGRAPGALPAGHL
Kind of experiment: SPR, CM5 chip, antibody captured by anti-human Fc IgG, antigen in flow, 1:1 fit. The method, then: First, anti-human Fc IgG was immobilized on the surface of the CM5 chip to 6000-10000 RU by amino coupling method, with FC1 as the reference channel. The coupling process was as follows: a freshly prepared 1:1 mixture of 50 mM NHS and 200 mM EDC was activated for 7 minutes, then injected with 10-50 ug/ml anti-human Fc IgG diluted in 10 mM sodium acetate ph5.0 buffer. The remaining activated sites were blocked with 1M ethanolamine. Then, HBS-EP+ buffer was used to dilute the antibody to be tested to 5 ug/ml (adjustable according to the capture level) and the antibodies were captured on the chip at a flow rate of 10 ul/min to obtain a response value of about 100˜300 RU. Then the antigen protein was diluted to 100 nM (the highest concentration was tentatively 100 nM), and flew through the chip surface at a flow rate of 30 ul/min. If enough signal value was obtained, the antigen-protein was diluted by several concentration gradients, and flew through the chip surface respectively. At the end of each cycle, the chip surface was regenerated with 10 mM Glycine at pH 1.5. The kinetic rate constant needed to be subtracted from the blank control, and the data was fitted with the global fit analysis method 1:1 combination model. The dissociation equilibrium rate constant (KD) was calculated according to the following formula: KD=kd/ka.
For orientation: Surface plasmon resonance follows binding to a sensor surface in real time, without labels.

For experiment [6], the target named is T3, hFc tagged monkey LAG-3 protein (cLAG-3-hFc protein) (monkey; human).
T3 construct: Made in HEK293 cells; also called monkey LAG-3 extracellular domain protein; not shown: human IgG Fc fragment (hFc) of the pCpC vector
T3 chain: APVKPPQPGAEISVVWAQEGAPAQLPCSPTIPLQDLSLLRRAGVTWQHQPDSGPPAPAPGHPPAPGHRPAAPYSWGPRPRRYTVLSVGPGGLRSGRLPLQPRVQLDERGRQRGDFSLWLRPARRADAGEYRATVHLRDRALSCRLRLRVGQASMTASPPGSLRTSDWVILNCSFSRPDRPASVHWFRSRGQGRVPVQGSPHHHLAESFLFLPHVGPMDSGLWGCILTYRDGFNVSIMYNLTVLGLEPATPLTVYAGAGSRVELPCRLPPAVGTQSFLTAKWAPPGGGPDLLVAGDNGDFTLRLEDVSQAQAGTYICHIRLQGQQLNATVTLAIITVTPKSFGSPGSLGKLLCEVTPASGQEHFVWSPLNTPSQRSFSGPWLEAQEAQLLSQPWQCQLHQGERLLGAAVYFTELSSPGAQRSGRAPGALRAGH
Kind of experiment: ELISA, cLAG-3-hFc coated; 6.6667 nM. As to the method:
(§1) The plate was sealed with plastic film and incubated overnight at 4° C. The plate was washed 2 times with the plate washing solution (PBS+0.01% Tween20) on the next day, and added with the blocking solution (PBS+0.01% Tween20+1% BSA) and blocked at room temperature for 1-2 hours. The blocking solution was poured out, and the plate was added with 50-100 μl of the antibody sample to be tested to each well, incubated at 37° C. for 1-2 hours, and washed 2-3 times with a plate washing solution (PBS+0.01% Tween20). HRP (horseradish peroxidase) labeled secondary antibody was added, and the plate was incubated at 37° C. for 1-2 hours, and washed 2-3 times with a plate washing solution (PBS+0.01% Tween20). 100 μl of TMB substrate was added to each well. After incubated at room temperature for 15-30 minutes, the plate was added with 100 μl of stop solution (1.0N HCl) to each well.
On the technique in general: An ELISA detects its analyte on a solid surface through an enzyme-linked reagent.

For experiment [7], the target named is T3, hFc tagged monkey LAG-3 protein …. Kind of experiment: ELISA, cLAG-3-hFc coated; 0.6667 nM. The method, then:
as §1

In experiment [8] the target is T4, human LAG-3 protein with hFc tag (hLAG-3-hFc protein) (human, UniProt P18627 23-450).
T4 construct: also called immunogen 1; LAG-3 extracellular domain protein; not shown: human IgG Fc fragment (hFc) of the pCpC vector
T4 sequence: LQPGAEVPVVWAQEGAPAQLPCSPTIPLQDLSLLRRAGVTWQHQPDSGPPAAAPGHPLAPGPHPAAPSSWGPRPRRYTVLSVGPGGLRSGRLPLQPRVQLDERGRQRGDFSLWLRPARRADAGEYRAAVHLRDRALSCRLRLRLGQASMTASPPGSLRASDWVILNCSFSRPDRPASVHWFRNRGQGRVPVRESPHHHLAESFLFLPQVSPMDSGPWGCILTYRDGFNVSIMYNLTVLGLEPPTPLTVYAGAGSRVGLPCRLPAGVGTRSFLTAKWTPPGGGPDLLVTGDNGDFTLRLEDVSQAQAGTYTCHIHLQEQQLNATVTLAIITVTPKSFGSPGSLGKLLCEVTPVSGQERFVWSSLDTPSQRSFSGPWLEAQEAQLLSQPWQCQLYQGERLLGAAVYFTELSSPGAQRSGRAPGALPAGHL
Kind of experiment: ELISA, hLAG-3-hFc coated; 0.6667 nM. The method, then:
as §1

The results in this text go back to patent US20210155689A1 (SHANGHAI PHARMAEXPLORER, published 2021).

Sequence of monkey LAG-3 on cells (HEK293-cLAG-3 stable cell line) (monkey) (P18627 other isoform, or with tags, fused parts or gaps limits assumed): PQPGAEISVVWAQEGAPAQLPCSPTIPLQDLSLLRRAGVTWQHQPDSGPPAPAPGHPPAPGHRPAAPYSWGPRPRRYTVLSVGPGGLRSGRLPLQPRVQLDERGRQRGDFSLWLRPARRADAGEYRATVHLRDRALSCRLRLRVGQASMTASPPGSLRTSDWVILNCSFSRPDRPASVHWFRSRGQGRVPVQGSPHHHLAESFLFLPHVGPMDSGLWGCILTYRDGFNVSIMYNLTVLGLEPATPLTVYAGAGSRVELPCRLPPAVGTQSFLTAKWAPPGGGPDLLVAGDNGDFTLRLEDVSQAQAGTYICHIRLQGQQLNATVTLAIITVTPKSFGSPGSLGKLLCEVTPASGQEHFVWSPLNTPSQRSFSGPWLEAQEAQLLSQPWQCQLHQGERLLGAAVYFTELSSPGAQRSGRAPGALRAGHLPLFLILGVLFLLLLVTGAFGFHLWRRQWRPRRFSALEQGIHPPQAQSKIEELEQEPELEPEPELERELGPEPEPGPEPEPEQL

On to hIgG control (antibody), for which the Mean fluorescence intensity is 2.86 in experiment [1], 3.04 in experiment [2] and 3.1 in experiment [3].

B1: 405B8H3 mouse-human chimeric antibody (antibody, V domains shown)
VH: QVQLQQSGAELVRPGASVTLSCKASGYTFTDYEMHWVKQTPVHGLEWIGATDPETGNSAYNQKFKGKAIMTADKSSSTAYMELRSLTSEDSAVYYCISTGWNDWGQGTSLTVSS
VL: DIKMTQSPSSMYASLGERVTITCKASQDINSYLSWFQQKPGKSPKTLIYRADRLLDGVPSRFSGSGSGQDYSLTISSLEYGDMGIYYCLQYDEFPYTFGGGTKLEIK
notes: also called mAb103-405B8H3
In general, Kd refers to the free concentration of one partner at which half of the binding sites on the other are occupied at equilibrium, for simple one-to-one binding. As a reminder, the koff is a measure of how fast the partners let go of each other. One may read the kon as the second-order rate constant of association. B1 displayed a Mean fluorescence intensity in experiment [4] of 4. Also, in experiment [5], the Kd was 2.58 nM, the koff is 0.000165 s⁻¹ and the kon stood at 64000 M⁻¹ s⁻¹.

B2: 405B8H3 (LAG-3 mouse-human chimeric antibody) (antibody, V domains shown)
VH: QVQLQQSGAELVRPGASVTLSCKASGYTFTDYEMHWVKQTPVHGLEWIGATDPETGNSAYNQKFKGKAIMTADKSSSTAYMELRSLTSEDSAVYYCISTGWNDWGQGTSLTVSS
VL: DIKMTQSPSSMYASLGERVTITCKASQDINSYLSWFQQKPGKSPKTLIYRADRLLDGVPSRFSGSGSGQDYSLTISSLEYGDMGIYYCLQYDEFPYTFGGGTKLEIK
notes: also called mouse-human chimeric antibody 405B8H3
B2: the OD450 came to 3.55 OD450 in experiment [6], 3.39 OD450 in experiment [7] and 3.51 OD450 in experiment [8].

B3: 105F1E10 (LAG-3 mouse-human chimeric antibody) (antibody, V domains shown)
VH: EVQLQQSGPELVKPGASVKMSCRASGYTFTDFKMHWMKQSHGKSLEWIGYIAPNNGGTAYNQKFRGKATLTVNESSNTAYMELRSLTSEDSAVYYCVDWDDVDYWGQGTTLTVSS
VL: DIKMTQSPSSMYASLGERVTITCKASQDINSYLSWFQQKSGKSPKTLIYRANRLVDGVPSRFSGSGSGQDYSLTISSLEYEDMGIYYCLQYVEFPLTFGAGTKLELK
Consider B3, for which the OD450 in experiment [6] was 3.53 OD450; in experiment [7], 3.38 OD450; in experiment [8], 3.46 OD450.

B4: 409B11E12 (LAG-3 mouse-human chimeric antibody) (antibody, V domains shown)
VH: QVQLQQSGAELVRPGASVTLSCKASGYTFTDYEMHWVKQTTVHGLEWIGATDPETSYSAYNQKFKGKAILTADKSSSTAYMELRSLTSEDSAVYYCIATGWNDWGQGTSLTVSS
VL: DLKMTQSPSSMYASLGERVTITCKASQDINSYLSWFQQKPGKSPKTLIYRANRLLDGVPSRFSGSGSGQDYSLTISSLEYEDMGIYYCLQYDEFPYTFGGGTKLEIK
For B4, the OD450 was 3.47 OD450 in experiment [6], 3.36 OD450 in experiment [7] and 3.55 OD450 in experiment [8].

B5: 409D4E10 (LAG-3 mouse-human chimeric antibody) (antibody, V domains shown)
VH: QVQLQQSGAELVRPGASVTLSCKASGNTFTDYEMHWVKQTPVHGLEWIGATDPETDNTAYNQKFKGKAILTTDKSSSTAYMELRSLTSEDSAVYYCITSGWNDWGQGTSLTVSS
VL: DIKMTQSPSSMYASLGERVTITCKASQDINSYLSWFQQKPGKSPKTLIYRANRLLDGVPSRFSGSGSGQDYSLTISSLEYEDMGIYYCLQYNEFPYTFGGGTKLEIK
In the case of B5, the OD450 is 3.79 OD450 in experiment [6], 3.78 OD450 in experiment [7] and 3.76 OD450 in experiment [8].

B6: 556F6B8 mouse-human chimeric antibody (antibody, V domains shown)
VH: RVQLKQSGPGLVQPSQSLSITCTVSGFSLIKYGVHWVRQSPGEGLEWLGVIWRGGITDYNAAFMSRLSITKDNSKSQVFFKMNSLQADDTAIYYCAKWDGPLAMDYWGQGTSVTVSS
VL: DIVMTQSHKFLSTSVGDRVSITCKASQDVGTTVAWYQQKPGQSPKLLIYWASTRHTGVPDRFTGSGSGTDFTLTISNVQSEDLADYFCQQYSSYPYTFGGGTKLEIK
notes: also called mAb123-556F6B8; 556F8B8
Turning to B6, in experiment [5], the Kd worked out at 3.39 nM, the koff was 0.000455 s⁻¹ and the kon came to 134000 M⁻¹ s⁻¹.

B7: 556F6B8 (LAG-3 mouse-human chimeric antibody) (antibody, V domains shown)
VH: RVQLKQSGPGLVQPSQSLSITCTVSGFSLIKYGVHWVRQSPGEGLEWLGVIWRGGITDYNAAFMSRLSITKDNSKSQVFFKMNSLQADDTAIYYCAKWDGPLAMDYWGQGTSVTVSS
VL: DIVMTQSHKFLSTSVGDRVSITCKASQDVGTTVAWYQQKPGQSPKLLIYWASTRHTGVPDRFTGSGSGTDFTLTISNVQSEDLADYFCQQYSSYPYTFGGGTKLEIK
notes: also called 556F8B8
B7: the OD450 in experiment [6] is 3.78 OD450; in experiment [7], 3.7 OD450; in experiment [8], 3.76 OD450.
